# According to US20240360228A1 (BIOLEGEND, published 2024):
# Changes are numbered by the printed parent chain.
# B1: AB5 (antibody, V domains shown)
# VH: QVQLKESGPGLVQPSQTLSLTCTVSGFSLTSYHVSWVRQPPGKGLEWMGVIWTGGSTTYNSLLKSRLSISRDISKSQVFLKMNSLQTEDTATYYCARGGTVVKGGFAYWGQGTLVTVSS
# VL: DIQMTQSPASLSASLEEIVTITCQASQDIGNRLSWYQQKPGKSPQLLIYGATSLADGVPSRFSGSRSGTQYSLKISRLQVEDIGIYYCLQAYSTPLTFGSGTKLEIK
# notes: Hybridoma monoclonal; Same VH/VL entries as AB6; also called antibody 5; clone 5
# B2: AB6 (antibody, V domains shown)
# VH: B1 VH
# VL: B1 VL
# notes: Hybridoma monoclonal; Same VH/VL entries as AB5; also called antibody 6; clone 6
# B3: AB8 (antibody, V domains shown)
# VH: AVQLVESGGGLVQPKESLKISCAASGFIFSNAAMYWVRQAPGKGLQWVARIRTKPKNYATYYIDSVKGRFTISRDDSKSMVYLQMDNLKTEDTAMYYCNTMGLTRAYYFDYWGQGVMVTVSS
# VL: DIQMTQSPSFLSASVGDRVTINCKASQNINRYLNWYQQKLGEAPKLLIYNANSLQTGIPSRFSGSGSGTDFTLTIRSLQPEDVATYFCLQHNSWPWTFGGGTKLELK
# notes: Hybridoma monoclonal; also called antibody 8; clone 8
# B4: AB7 (antibody, V domains shown)
# VH: B3 VH with I28T, N31Y, A40T, Q46E, K56N, I63A, T90S, T100I, L103I, A106G
# VL: B3 VL with K39Q, S53N, G66R, R76S
# notes: Hybridoma monoclonal; also called antibody 7; clone 7
# Key:
# human CCR8 [1] = target: T1, human CCR8 (human, UniProt P51685 1-355); test: flow blocking, PBMC CCR8+CD4+; competitor PE-AB6
# T1 construct: Native CCR8 on human PBMC (CCR8+ CD3+ or CCR8+ CD4+ lymphocytes); also called chemokine (C-C motif) receptor 8
# Description: (§1) For blocking studies, 100 μL of the cell suspension were incubated with 10 μg purified isotype control, AB1, AB2, AB3, AB4, AB5, AB8, AB9, AB10, AB11, AB12, AB13, AB14, AB15, and Commercial ABI antibodies, or isotype control, as blocking agents.
# (§2) After incubation with the blocking agent, the cells were incubated with 0.25 μg of the indicated PE-conjugated antibody plus anti-human CD4 APC or anti-human CD3 for another 15 minutes in the dark and then washed 2 times with Cell Staining Buffer, and acquired in a FACSCanto II flow cytometer (BD Biosciences); the data was analyzed using FCS Express (De Novo Software); MFI correspond to the CCR8+ CD4+ lymphocytes or CCR8+ CD3+ lymphocytes.
# human CCR8 [2] = target: T1, human CCR8; test: flow blocking, PBMC CCR8+CD3+; competitor PE-433H
# Description: as §1, §2
# (§3) Percentage original MFI was calculated by dividing the MFI of samples blocked with AB1, AB2, AB3, AB4, AB5, AB6, AB7, AB8, AB9, AB10, AB11, AB12, AB13, AB14, AB15, and Commercial ABI antibodies, by the MFI of samples blocked with the corresponding isotype control. This value was subtracted from 100 to get a blocking percentage. The formula is shown below: […]
# human CCR8 [3] = target: T1, human CCR8; test: flow blocking, PBMC CCR8+CD3+; competitor PE-AB13
# Description: as §1, §2, §3
# human CCR8 [4] = target: T1, human CCR8; test: flow blocking, PBMC CCR8+CD4+; competitor PE-AB12
# Description: as §1, §2, §3
# human CCR8 [5] = target: T1, human CCR8; test: flow blocking, PBMC CCR8+CD3+; competitor PE-AB11
# Description: as §1, §2, §3
# human CCR8 [6] = target: T1, human CCR8; test: flow blocking, PBMC CCR8+CD4+; competitor PE-AB5
# Description: as §1, §2, §3
# human CCR8 [7] = target: T1, human CCR8; test: flow blocking, PBMC CCR8+CD3+; competitor PE-AB12
# Description: as §1, §2, §3
# human CCR8 [8] = target: T1, human CCR8; test: flow blocking, PBMC CCR8+CD3+; competitor PE-AB15
# Description: as §1, §2, §3
# human CCR8 [9] = target: T1, human CCR8; test: flow blocking, PBMC CCR8+CD3+; competitor PE-AB5
# Description: as §1, §2, §3
# human CCR8 [10] = target: T1, human CCR8; test: flow blocking, PBMC CCR8+CD3+; competitor PE-AB8
# Description: as §1, §2, §3
# human CCR8 [11] = target: T1, human CCR8; test: flow blocking, PBMC CCR8+CD4+; competitor PE-AB1
# Description: as §1, §2, §3
# human CCR8 [12] = target: T1, human CCR8; test: flow blocking, PBMC CCR8+CD3+; competitor PE-AB6
# Description: as §1, §2, §3
# human CCR8 [13] = target: T1, human CCR8; test: flow blocking, PBMC CCR8+CD3+; competitor PE-AB7
# Description: as §1, §2, §3
# human CCR8 [14] = target: T1, human CCR8; test: flow blocking, PBMC CCR8+CD4+; competitor PE-AB13
# Description: as §1, §2
# human CCR8 [15] = target: T1, human CCR8; test: flow blocking, PBMC CCR8+CD3+; competitor PE-L263G8
# Description: as §1, §2, §3
# human CCR8 [16] = target: T1, human CCR8; test: flow blocking, PBMC CCR8+CD3+; competitor PE-AB14
# Description: as §1, §2, §3
# human CCR8 [17] = target: T1, human CCR8; test: flow blocking, PBMC CCR8+CD4+; competitor PE-433H
# Description: as §1, §2
# human CCR8 [18] = target: T1, human CCR8; test: flow blocking, PBMC CCR8+CD4+; competitor PE-AB15
# Description: as §1, §2, §3
# human CCR8 [19] = target: T1, human CCR8; test: flow blocking, PBMC CCR8+CD4+; competitor PE-AB14
# Description: as §1, §2
# human CCR8 [20] = target: T1, human CCR8; test: flow blocking, PBMC CCR8+CD4+; competitor PE-AB2
# Description: as §1, §2, §3
# human CCR8 [21] = target: T1, human CCR8; test: flow blocking, PBMC CCR8+CD4+; competitor PE-AB3
# Description: as §1, §2, §3
# human CCR8 [22] = target: T1, human CCR8; test: flow blocking, PBMC CCR8+CD4+; competitor PE-AB4
# Description: as §1, §2, §3
# human CCR8 [23] = target: T1, human CCR8; test: flow blocking, PBMC CCR8+CD4+; competitor PE-AB11
# Description: as §1, §2, §3
# human CCR8 [24] = target: T1, human CCR8; test: flow blocking, PBMC CCR8+CD4+; competitor PE-AB10
# Description: as §1, §2, §3
# human CCR8 [25] = target: T1, human CCR8; test: flow blocking, PBMC CCR8+CD3+; competitor PE-AB10
# Description: as §1, §2, §3
# T1 sequence (P51685 whole entry): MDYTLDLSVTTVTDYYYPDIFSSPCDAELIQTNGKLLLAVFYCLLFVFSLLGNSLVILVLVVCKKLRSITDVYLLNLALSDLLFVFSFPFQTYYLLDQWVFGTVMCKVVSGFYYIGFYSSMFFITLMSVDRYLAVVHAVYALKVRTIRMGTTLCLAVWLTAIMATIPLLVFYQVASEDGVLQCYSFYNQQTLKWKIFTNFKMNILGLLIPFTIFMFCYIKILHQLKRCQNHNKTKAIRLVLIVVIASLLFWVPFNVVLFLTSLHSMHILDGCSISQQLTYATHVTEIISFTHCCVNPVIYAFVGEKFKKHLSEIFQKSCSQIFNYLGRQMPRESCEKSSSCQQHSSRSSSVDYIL
binder,measurement,setting,value
B1,% Blocking,human CCR8 [1],95.5%
same,% Positive cells,human CCR8 [1],0.09%
same,% Blocking,human CCR8 [2],-5.58%
same,MFI,human CCR8 [2],936
same,% Blocking,human CCR8 [3],-7.01%
same,MFI,human CCR8 [3],947
same,% Blocking,human CCR8 [4],0%
same,% Positive cells,human CCR8 [4],1.8%
same,% Blocking,human CCR8 [5],-9.7%
same,MFI,human CCR8 [5],1020
same,% Blocking,human CCR8 [6],91.1%
same,% Positive cells,human CCR8 [6],0.18%
same,% Blocking,human CCR8 [7],-11.3%
same,MFI,human CCR8 [7],1140
same,% Blocking,human CCR8 [8],-1.63%
same,MFI,human CCR8 [8],873
same,% Blocking,human CCR8 [9],14.8%
same,MFI,human CCR8 [9],840
same,% Blocking,human CCR8 [10],5.47%
same,MFI,human CCR8 [10],1120
same,% Blocking,human CCR8 [11],72.3%
same,% Positive cells,human CCR8 [11],0.43%
same,% Blocking,human CCR8 [12],37.3%
same,MFI,human CCR8 [12],579
same,% Blocking,human CCR8 [13],-3.38%
same,MFI,human CCR8 [13],1210
same,% Blocking,human CCR8 [14],27.8%
same,% Positive cells,human CCR8 [14],1.43%
same,% Blocking,human CCR8 [15],-14.2%
same,MFI,human CCR8 [15],769
same,% Blocking,human CCR8 [16],0.46%
same,MFI,human CCR8 [16],860
same,% Blocking,human CCR8 [17],12.5%
same,% Positive cells,human CCR8 [17],1.54%
same,% Blocking,human CCR8 [18],-29.5%
same,% Positive cells,human CCR8 [18],1.67%
same,% Blocking,human CCR8 [19],-25.4%
same,% Positive cells,human CCR8 [19],1.63%
same,% Blocking,human CCR8 [20],98.8%
same,% Positive cells,human CCR8 [20],0.02%
same,% Blocking,human CCR8 [21],95.9%
same,% Positive cells,human CCR8 [21],0.07%
same,% Blocking,human CCR8 [22],93.3%
same,% Positive cells,human CCR8 [22],0.12%
same,% Blocking,human CCR8 [23],-6.12%
same,% Positive cells,human CCR8 [23],2.08%
same,% Blocking,human CCR8 [24],5.41%
same,% Positive cells,human CCR8 [24],1.4%
same,% Blocking,human CCR8 [25],-20.7%
same,MFI,human CCR8 [25],962
B2,% Blocking,human CCR8 [2],10.7%
same,MFI,human CCR8 [2],792
same,% Blocking,human CCR8 [3],2.54%
same,MFI,human CCR8 [3],862
same,% Blocking,human CCR8 [5],-18.3%
same,MFI,human CCR8 [5],1100
same,% Blocking,human CCR8 [7],-3.13%
same,MFI,human CCR8 [7],1050
same,% Blocking,human CCR8 [8],13.3%
same,MFI,human CCR8 [8],745
same,% Blocking,human CCR8 [9],0.71%
same,MFI,human CCR8 [9],979
same,% Blocking,human CCR8 [10],33.8%
same,MFI,human CCR8 [10],787
same,% Blocking,human CCR8 [12],-4.93%
same,MFI,human CCR8 [12],969
same,% Blocking,human CCR8 [13],32.7%
same,MFI,human CCR8 [13],786
same,% Blocking,human CCR8 [15],-16.3%
same,MFI,human CCR8 [15],783
same,% Blocking,human CCR8 [16],3.88%
same,MFI,human CCR8 [16],831
same,% Blocking,human CCR8 [25],-11.6%
same,MFI,human CCR8 [25],890
B3,% Blocking,human CCR8 [1],-14.4%
same,% Positive cells,human CCR8 [1],2.31%
same,% Blocking,human CCR8 [2],53%
same,MFI,human CCR8 [2],417
same,% Blocking,human CCR8 [3],-50.2%
same,MFI,human CCR8 [3],1330
same,% Blocking,human CCR8 [4],98.9%
same,% Positive cells,human CCR8 [4],0.02%
same,% Blocking,human CCR8 [5],45.9%
same,MFI,human CCR8 [5],502
same,% Blocking,human CCR8 [6],-8.42%
same,% Positive cells,human CCR8 [6],2.19%
same,% Blocking,human CCR8 [7],48.4%
same,MFI,human CCR8 [7],527
same,% Blocking,human CCR8 [8],45.2%
same,MFI,human CCR8 [8],471
same,% Blocking,human CCR8 [9],-11.8%
same,MFI,human CCR8 [9],1100
same,% Blocking,human CCR8 [10],26.9%
same,MFI,human CCR8 [10],870
same,% Blocking,human CCR8 [11],-41.9%
same,% Positive cells,human CCR8 [11],2.2%
same,% Blocking,human CCR8 [12],-17.3%
same,MFI,human CCR8 [12],1080
same,% Blocking,human CCR8 [13],26.1%
same,MFI,human CCR8 [13],863
same,% Blocking,human CCR8 [14],93.4%
same,% Positive cells,human CCR8 [14],0.13%
same,% Blocking,human CCR8 [15],13.1%
same,MFI,human CCR8 [15],585
same,% Blocking,human CCR8 [16],46.4%
same,MFI,human CCR8 [16],463
same,% Blocking,human CCR8 [17],92.6%
same,% Positive cells,human CCR8 [17],0.13%
same,% Blocking,human CCR8 [18],98.5%
same,% Positive cells,human CCR8 [18],0.02%
same,% Blocking,human CCR8 [19],96.9%
same,% Positive cells,human CCR8 [19],0.04%
same,% Blocking,human CCR8 [20],-38.4%
same,% Positive cells,human CCR8 [20],2.27%
same,% Blocking,human CCR8 [21],-27.5%
same,% Positive cells,human CCR8 [21],2.18%
same,% Blocking,human CCR8 [22],-19.7%
same,% Positive cells,human CCR8 [22],2.13%
same,% Blocking,human CCR8 [23],98.5%
same,% Positive cells,human CCR8 [23],0.03%
same,% Blocking,human CCR8 [24],91.2%
same,% Positive cells,human CCR8 [24],0.13%
same,% Blocking,human CCR8 [25],23.7%
same,MFI,human CCR8 [25],608
B4,% Blocking,human CCR8 [2],45.2%
same,MFI,human CCR8 [2],486
same,% Blocking,human CCR8 [3],-0.34%
same,MFI,human CCR8 [3],888
same,% Blocking,human CCR8 [5],53.2%
same,MFI,human CCR8 [5],434
same,% Blocking,human CCR8 [7],49.1%
same,MFI,human CCR8 [7],520
same,% Blocking,human CCR8 [8],23.2%
same,MFI,human CCR8 [8],660
same,% Blocking,human CCR8 [9],-6.64%
same,MFI,human CCR8 [9],1050
same,% Blocking,human CCR8 [10],26.6%
same,MFI,human CCR8 [10],873
same,% Blocking,human CCR8 [12],-23.2%
same,MFI,human CCR8 [12],1140
same,% Blocking,human CCR8 [13],47.3%
same,MFI,human CCR8 [13],616
same,% Blocking,human CCR8 [15],0.82%
same,MFI,human CCR8 [15],668
same,% Blocking,human CCR8 [16],28.5%
same,MFI,human CCR8 [16],618
same,% Blocking,human CCR8 [25],12.2%
same,MFI,human CCR8 [25],700
